Results: patent publication US20220204611A1 (Amgen, published 2022)

T1: recombinant soluble human TREM2 protein (human TREM2 ECD-FlagHis) (human, UniProt Q9NZC2 19-174)
T1 sequence: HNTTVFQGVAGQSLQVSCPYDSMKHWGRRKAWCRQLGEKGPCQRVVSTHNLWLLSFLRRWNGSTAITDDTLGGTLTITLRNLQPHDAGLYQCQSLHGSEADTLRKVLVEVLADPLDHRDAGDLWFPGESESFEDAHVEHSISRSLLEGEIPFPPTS

T2: recombinant soluble cynomolgus TREM2 protein (cynomolgus TREM2 extracellular domain coupled to a Flag/His tag) (cynomolgus, UniProt A0A2K5UY34 49-204)
T2 construct: extracellular domain; also called Cyno TREM2
T2 sequence: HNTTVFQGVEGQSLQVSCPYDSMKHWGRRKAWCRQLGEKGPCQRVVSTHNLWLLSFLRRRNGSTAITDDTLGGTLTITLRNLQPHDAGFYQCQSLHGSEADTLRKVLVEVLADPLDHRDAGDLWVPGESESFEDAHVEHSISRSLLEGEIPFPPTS

T3: human TREM2 on cells (human, UniProt Q9NZC2 19-230)
T3 sequence: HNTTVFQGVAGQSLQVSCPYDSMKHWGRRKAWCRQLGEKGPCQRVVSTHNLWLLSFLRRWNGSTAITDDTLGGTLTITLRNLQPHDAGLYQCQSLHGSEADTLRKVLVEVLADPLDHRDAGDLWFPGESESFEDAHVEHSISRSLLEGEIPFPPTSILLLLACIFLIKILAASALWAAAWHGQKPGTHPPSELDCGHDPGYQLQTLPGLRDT

T4: soluble human TREM2 protein (TREM2 ECD-huIgG1 Fc fusion protein) (human, UniProt Q9NZC2 19-174, biotinylated)
T4 construct: also called biotinylated soluble human TREM2 protein
T4 sequence: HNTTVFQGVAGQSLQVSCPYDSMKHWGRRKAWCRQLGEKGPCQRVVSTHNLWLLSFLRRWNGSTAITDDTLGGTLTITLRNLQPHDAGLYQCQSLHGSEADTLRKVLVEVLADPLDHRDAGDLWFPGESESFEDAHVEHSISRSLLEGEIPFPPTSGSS


Experiments:
[1] = target: T1, recombinant soluble human TREM2 protein …; test: Octet BLI binning; competitor: load Ab 13E7
Method in brief: (§1)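 Binding of the sandwich antibody after the load antibody places the pair in different epitope bins. Sensors carried load antibody captured via anti-human Fc, blocked with irrelevant human IgG2, then exposed to sandwich antibody at 5 μg/mL for 5 min at 25° C.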

[2] = target: T2, recombinant soluble cynomolgus TREM2 …; test: Octet BLI, antibody on anti-human Fc sensor, 25 C
Description: (§2) To quantitate the binding affinity of agonist antibodies for human TREM2, association and dissociation rate constants as well as the equilibrium dissociation constant were determined using anti-human Fc (Kinetic) sensors on an Octet® HTX instrument (Pall ForteBio). Agonist anti-TREM2 antibodies were made up in DMEM null media, 250 μL at 10 μg/mL. The, 250 uL of assay buffer (10 mM Tris (pH 7.6), 0.1% Triton X-100, 150 mM NaCl, 1mM CaCl₂, and 1 mg/mL BSA) was added to the antibody solutions to a final volume of 500 μL and final antibody concentration of 5 μg/mL. The anti-human Fc sensor was pre-incubated in 200 μL of the assay buffer for a minimum of 10 minutes. The sensor was then regenerated for 5 seconds in 10 mM glycine pH 1.5. Test agonist anti-TREM2 antibodies were loaded onto the sensor for 2 minutes, and baseline measurements were taken for 2 minutes. […] The recombinant TREM2 proteins were allowed to associate with the antibody-loaded sensor for 10 minutes, and then dissociation was measured for 10 minutes. The assay was conducted at 25° C. Experimental kinetic results were globally fit to a 1:1 binding model in order to determine the association and dissociation rate constants as well as the equilibrium dissociation constant.

[3] = target: T1, recombinant soluble human TREM2 protein …; test: Octet BLI, antibody on anti-human Fc sensor, 25 C
Description: as §2

[4] = target: T3, human TREM2 on cells; test: cell-based or functional assay
[5] = target: T1, recombinant soluble human TREM2 protein …; test: Octet BLI binning; competitor: load Ab 5E3
Method in brief: as §1

[6] = target: T1, recombinant soluble human TREM2 protein …; test: Octet BLI binning; competitor: load Ab 26C10
Method in brief: as §1

[7] = target: T1, recombinant soluble human TREM2 protein …; test: Octet BLI binning; competitor: load Ab 24A10
Method in brief: as §1

[8] = target: T4, soluble human TREM2 protein (TREM2 …); test: ELISA, hybridoma supernatant on captured biotinylated TREM2 ECD-Fc
[9] = target: T1, recombinant soluble human TREM2 protein …; test: Octet BLI binning; competitor: load Ab 16B8
Method in brief: as §1

Row | Binder | sandwich binding signal [1] | Kd [2] | Kd [3] | Emax (% maximum activation compared to RnD antibody) [4] | pSyk EC50, differentiated THP-1 cells [4] | sandwich binding signal [5] | sandwich binding signal [6] | sandwich binding signal [7] | OD 450 [8] | sandwich binding signal [9]
1 | 10E3 (antibody, human IgG2, V domains shown, human IgG2 from hybridoma) VH: EVQLVQSGAEVKKPGESLMISCKGSGYSFTNYWIGWVRQMPGKGLEWMGIIYPGDSDTRYSPSFQGQVTISADKSISTAYLQWSSLKASDTAMYFCARRRQGIWGDALDIWGQGTLVTVSS VL: EIVMTQSPATLSVSPGERATLSCRASQSVSSNLAWFQQKPGQAPRLLIYGASTRATGIPARFSVSGSGTEFTLTISSLQSEDFAFYYCLQDNNWPPTFGPGTKVDIK | -0.019 | 11.3 nM | 10.3 nM | 456% | 1 nM | 0.415 | 0.348 | 0.38 | 0.55 OD450 | 0.33
2 | 13E7 (antibody, human IgG2, V domains shown, human IgG2 from hybridoma) VH: EVQLVQSGAEVKKPGESLMISCKGSGYSFTSYWIGWVRQMPGKGLEWMGIIYPGDSDTRYSPSFQGQVTISADKSISTAYLQWSSLKASDTAMYFCARRRQGIWGDALDFWGQGTLVTVSS VL: EIVMTQSPATLSVSPGERATLSCRASQSVSSNLAWFQQKPGQAPRLLIYGASTRATGIPARFSVSGSGTEFTLTISSLQSEDFAVYYCLQDNNWPPTFGPGTKVDIK | -0.017 | 8.71 nM | 11 nM | 460% | 0.462 nM | 0.428 | 0.369 | 0.383 | 0.73 OD450 | 0.329

More lines, now with the values ahead:

Row | sandwich binding signal [1] | Kd [2] | Kd [3] | Emax (% maximum activation compared to RnD antibody) [4] | pSyk EC50, differentiated THP-1 cells [4] | sandwich binding signal [5] | sandwich binding signal [6] | sandwich binding signal [7] | OD 450 [8] | sandwich binding signal [9] | Binder
3 | 0.051 | 2.5 nM | 2.6 nM | 273% | 0.899 nM | 0.565 | 0.472 | 0.499 | 3.17 OD450 | 0.429 | 6E7 (antibody, human IgG2, V domains shown, human IgG2 from hybridoma) VH: EVQLVQSGAEVKKPGESLKISCKGSGYSFTSYWIAWVRQMPGKGLEWMGIIYPGDSDTRYSPSFQGQVTISADKSISTAYLQWSSLKASDTAMYFCARQRTFYYDSSDYFDYWGQGTLVTVSS VL: DIQMTQSPSSVSASVGDRVTITCRASQGISSWLAWYQQKPGKAPKLLIYAASSLQNGVPSRFSGSGSGTDFTLTISSLQPEDFATYFCQQADSFPRTFGQGTKLEIK
4 | 0.259 | 1.6 nM | 2.1 nM | 195% | 0.594 nM | -0.165 | -0.073 | 0.441 | 3.88 OD450 | -0.047 | 5E3 (antibody, human IgG2, V domains shown, human IgG2 from hybridoma) VH: QVQLVQSGAEVKKPGASVKVSCKASGYTFTGYYIHWVRQAPGLGLEWMGWINPYSGGTTSAQKFQGRVTMTRDTSISSAYMELSRLRSDDTAVYYCARDGGYLALYGTDVWGQGTTVTVSS VL: DIQMTQSPSSLSASVGDRVTITCRASQGISNYLAWFQQKPGKAPKSLIYAASSLQSGVPSKFSGSGSGTDFTLTISSLQPEDFATYYCQQYSTYPFTFGPGTKVDIK
